Source: patent publication US10918700B2, “Lipid-based nanoparticles and use of same in optimized insulin dosing regimens” (SDG, Inc., priority 2019, dated 2021)

Legend:
[1] = tested on: type 1 diabetes mellitus (T1DM); assay: ISLE-1: hypoglycemia (CRF-reported and blinded CGM)
Procedure: (§1) ISLE-1 was a 26-week, Phase 2b, multicenter, randomized, double-blind, trial in T1DM treated with multiple daily injections (MDI) of insulin.
(§2) Informed of ˜10% dilution, participants continued their current insulin parameters. Hypoglycemia was recorded on Case Report Forms (CRFs) based on subject diaries and SMBG records, subjectively investigator-judged as “mild,” “moderate,” “severe,” or “life threatening.” Blinded continuous glucose monitoring (CGM) (Dexcom G4) was used for 5-7 days to assess glucose at baseline, weeks 13 and 26. A1c, lipids, and liver enzymes were measured approximately monthly. Liver fat content MRIs were performed in a subset.
The intent to treat (ITT) population included all randomized subjects receiving at least one dose of study treatment. Safety analyses included all randomized subjects. […] Mean A1c change was analyzed using ANCOVA within intent-to-treat (ITT) cohort at each visit. […] Poisson regression models adjusting for site as random effect compared “severe” hypoglycemia incidence rates within A1c groups, testing for baseline A1c by treatment group interaction. Event number/subject was truncated at 15, accounting for extreme outliers.

[2] = tested on: type 1 diabetes mellitus (T1DM); assay: ISLE-1: lipids, liver enzymes, liver fat MRI, adverse events; assay type: in vivo, human; details: over study
Procedure: as §1, §2
The intent to treat (ITT) population included all randomized subjects receiving at least one dose of study treatment. Safety analyses included all randomized subjects. […] Mean A1c change was analyzed using ANCOVA within intent-to-treat (ITT) cohort at each visit. […] Direct likelihood models were used for treatment arm A1c comparisons, % time <54 mg/dL, bolus insulin, and basal insulin within the two A1c subgroups. Poisson regression models adjusting for site as random effect compared “severe” hypoglycemia incidence rates within A1c groups, testing for baseline A1c by treatment group interaction. Event number/subject was truncated at 15, accounting for extreme outliers.

type 1 diabetes (T1D) = assay: Example 3, 6-month open label study: insulin dosing, A1C, mean daily glucose, weight; assay type: in vivo, human; details: 61 enrollees, mean baseline A1C 7.3
Excerpt: Subcutaneous (SC) insulin is non-physiologic, since pancreatic insulin goes first to the liver. The present study was designed to determine whether delivery of Hepatic Directed Vesicles (HDV) admixed with lispro/HUMALOG® (HDV-L) decreases hypoglycemia in well controlled patients on multiple daily injections (MDI) with type 1 diabetes (T1D) using unblinded Dexcom G6 continuous glucose monitoring (CGM).
This study was a 6-month (mo) open label study of prandial insulin (lispro, 3 mo, then HDV-L, 3 mo) with basal insulin degludec (TRESIBA®) and unblinded continuous glucose monitoring (CGM) in T1D with baseline A1C 6.5-8.5%. Insulin dosing, hypoglycemia, and daily glucose control were among the monitored parameters.
In this study the target fasting blood glucose was 80-100 mg/dL. At 3 mo subjects were randomized to −10% or −40% basal dose to encourage titration with HDV-L. Physicians titrated basal insulin weekly. A hypoglycemic event was defined as ≥15 min of CGM≤54 mg/dL.

[3] = tested on: type 1 diabetes mellitus (T1DM); assay: Continuous glucose monitoring results, Good to Great Hypoglycemia study (Table 1); assay type: in vivo, human
Procedure: A1c, lipids, and liver enzymes were measured approximately monthly. Liver fat content MRIs were performed in a subset.
Safety analyses included all randomized subjects.
Table 1 summarizes continuous glucose monitoring results in the Good to Great Hypoglycemia study, in terms of increased HDV-related hypoglycemia events.

[4] = tested on: type 1 diabetes mellitus (T1DM); assay: ISLE-1 26-week Phase 2b randomized double-blind trial: A1c; assay type: in vivo, human; details: ITT, 26 weeks
Procedure: ISLE-1 was a 26-week, Phase 2b, multicenter, randomized, double-blind, non-inferiority trial.
as §1
Main exclusion criteria were total insulin dose ≥1.5 IU/kg/day or NPH insulin as basal.
Prandial dosing of HDV-lispro or control lispro was 15 minutes prior to the meal, and basal insulins were administered either as a single daily dose or a divided twice per day dosing, every 12 hours.
as §2
The intent to treat (ITT) population included all randomized subjects receiving at least one dose of study treatment. Safety analyses included all randomized subjects. […] Mean A1c change was analyzed using ANCOVA within intent-to-treat (ITT) cohort at each visit. […]

## insulin lispro
[1]; baseline A1c<8.5%
  CRF-reported incidence of "severe" hypoglycemia: 21 events/100 person-years
[1]; baseline A1c<8.5%, CGM
  time <54 mg/dL during Week 26 (median): 0.6%
[1]; baseline A1c≥8.5%
  CRF-reported incidence rate of "severe" hypoglycemia: 97 events/100 person-years
[1]; baseline A1c≥8.5%, CGM
  percentage time <54 mg/dL during Week 26 (median): 2.6%
[2]
  change in total cholesterol: 7.3 mg/dL
Type 1 diabetes (T1D)
  A1C after 3 mo optimization: 6.9%
[3]; Baseline
  % Time <54 mg/dL, median: 2.1%
  % Time <70 mg/dL, median: 5.8%
  Area above curve <54 mg/dL, median: 0.1
  Area above curve <70 mg/dL, median: 0.9
[3]; Endpoint
  % Time <54 mg/dL, median: 1.7%
  % Time <70 mg/dL, median: 5.6%
  Area above curve <54 mg/dL, median: 0.1
  Area above curve <70 mg/dL, median: 0.7
[4]
  Mean change in A1c baseline to Week 26: −0.16%
